In the supplement of paper PMC9112550, “Optimization of the antimicrobial peptide Bac7 by deep mutational scanning” (BMC Biology, 2022):

tested on: Escherichia coli TOP10; assay: shrunken log2 fold change of peptide-encoding DNA abundance (4.5 h post-induction vs induction); higher = less antimicrobial activity (less host growth inhibition); conditions: time post-induction: 4.5 h; library: site-saturation at positions 5, 18, 19, 20
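Further: peptides expressed intracellularly from a pBAD plasmid library in pooled LB shake-flask culture, induced with 0.3% L-arabinose, DNA abundance read by NGS, three biological replicates, DESeq2 with apeglm shrinkage.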

RRIRERPPRLPRPRPRPIVEPRP and RRIRDRPPRLPRPRPRPPIDPRP are within 0.2 log units of each other in “shrunken log2 fold change” value: 0.0517 for the first, 0.0165 for the second.

RRIRIRPPRLPRPRPRPAICPRP and RRIRDRPPRLPRPRPRPWNRPRP are within 0.2 log units of each other in “shrunken log2 fold change” value: -0.15 for the first, -0.339 for the second.

Compared with RRIRVRPPRLPRPRPRPEYWPRP, RRIRERPPRLPRPRPRPCRRPRP is higher in “shrunken log2 fold change” value: -0.161 for the first, 0.0646 for the second.

First: RRIRARPPRLPRPRPRPNPLPRP
Second: RRIRARPPRLPRPRPRPEYPPRP
The “shrunken log2 fold change” value of the first is higher: 0.32 for the first, 0.0126 for the second.

Going from RRIRDRPPRLPRPRPRPVHKPRP to RRIRDRPPRLPRPRPRPITYPRP, the “shrunken log2 fold change” value rises from -0.233 to 0.024.

RRIRPRPPRLPRPRPRPELRPRP and RRIRNRPPRLPRPRPRPTMWPRP are within 0.2 log units of each other in “shrunken log2 fold change” value: -0.0276 for the first, -0.0923 for the second.

First: RRIRWRPPRLPRPRPRPVVFPRP
Second: RRIRGRPPRLPRPRPRPNPTPRP
The “shrunken log2 fold change” value of the first is lower: 0.0685 for the first, 0.602 for the second.

First: RRIRSRPPRLPRPRPRPHWLPRP
Second: RRIRYRPPRLPRPRPRPEVSPRP
The “shrunken log2 fold change” value of the first is lower: -0.614 for the first, -0.117 for the second.

Compared with RRIRDRPPRLPRPRPRPTAVPRP, RRIRGRPPRLPRPRPRPMQQPRP is higher in “shrunken log2 fold change” value: 0.421 for the first, 2.08 for the second.

Going from RRIRTRPPRLPRPRPRPHTHPRP to RRIRTRPPRLPRPRPRPMEQPRP, the “shrunken log2 fold change” value rises from -0.873 to -0.189.

Compared with RRIRKRPPRLPRPRPRPIRDPRP, RRIRSRPPRLPRPRPRPIYLPRP is lower in “shrunken log2 fold change” value: -0.016 for the first, -0.336 for the second.

RRIRYRPPRLPRPRPRPCMEPRP and RRIRQRPPRLPRPRPRPQSAPRP are within 0.2 log units of each other in “shrunken log2 fold change” value: -0.0771 for the first, -0.08 for the second.

RRIRMRPPRLPRPRPRPHRNPRP and RRIRRRPPRLPRPRPRPLNFPRP are within 0.2 log units of each other in “shrunken log2 fold change” value: -0.181 for the first, -0.115 for the second.

Going from RRIRERPPRLPRPRPRPPMGPRP to RRIRDRPPRLPRPRPRPVGAPRP, the “shrunken log2 fold change” value rises from -0.107 to 0.825.

RRIRPRPPRLPRPRPRPWIPPRP and RRIRDRPPRLPRPRPRPLYAPRP are within 0.2 log units of each other in “shrunken log2 fold change” value: -0.225 for the first, -0.122 for the second.

First: RRIRLRPPRLPRPRPRPECYPRP
Second: RRIRGRPPRLPRPRPRPFGGPRP
The “shrunken log2 fold change” value of the first is lower: -0.235 for the first, 0.401 for the second.

RRIRFRPPRLPRPRPRPIRRPRP and RRIRQRPPRLPRPRPRPFCSPRP are within 0.2 log units of each other in “shrunken log2 fold change” value: 0.0321 for the first, 0.036 for the second.

First: RRIRARPPRLPRPRPRPHNRPRP
Second: RRIRWRPPRLPRPRPRPEVDPRP
The “shrunken log2 fold change” value of the first is lower: -0.00621 for the first, 1.87 for the second.

First: RRIRDRPPRLPRPRPRPSQQPRP
Second: RRIRARPPRLPRPRPRPNYSPRP
The “shrunken log2 fold change” value of the first is higher: -0.123 for the first, -0.502 for the second.

Compared with RRIRYRPPRLPRPRPRPDANPRP, RRIRIRPPRLPRPRPRPPLAPRP is higher in “shrunken log2 fold change” value: -0.114 for the first, 0.293 for the second.

First: RRIRPRPPRLPRPRPRPHQGPRP
Second: RRIRVRPPRLPRPRPRPQRIPRP
The “shrunken log2 fold change” value of the first is higher: -0.213 for the first, -0.544 for the second.

RRIRARPPRLPRPRPRPQMDPRP and RRIRRRPPRLPRPRPRPVKPPRP are within 0.2 log units of each other in “shrunken log2 fold change” value: 0.099 for the first, 0.265 for the second.

First: RRIRKRPPRLPRPRPRPLPMPRP
Second: RRIRRRPPRLPRPRPRPRNMPRP
The “shrunken log2 fold change” value of the first is higher: 0.562 for the first, 0.112 for the second.

Going from RRIRMRPPRLPRPRPRPNINPRP to RRIRKRPPRLPRPRPRPQRYPRP, the “shrunken log2 fold change” value rises from -0.356 to 0.132.

Compared with RRIRFRPPRLPRPRPRPYLTPRP, RRIRMRPPRLPRPRPRPNWYPRP is higher in “shrunken log2 fold change” value: -0.875 for the first, -0.0601 for the second.

RRIRTRPPRLPRPRPRPPWIPRP and RRIRHRPPRLPRPRPRPEEPPRP are within 0.2 log units of each other in “shrunken log2 fold change” value: 0.161 for the first, 0.0179 for the second.

Going from RRIRPRPPRLPRPRPRPHTDPRP to RRIRNRPPRLPRPRPRPTQRPRP, the “shrunken log2 fold change” value rises from -0.327 to 0.582.

Going from RRIRKRPPRLPRPRPRPQCKPRP to RRIRYRPPRLPRPRPRPIYCPRP, the “shrunken log2 fold change” value falls from 0.0757 to -0.15.

First: RRIRTRPPRLPRPRPRPMHMPRP
Second: RRIRARPPRLPRPRPRPRTLPRP
The “shrunken log2 fold change” value of the first is lower: -0.202 for the first, 0.226 for the second.

Compared with RRIRPRPPRLPRPRPRPGFCPRP, RRIRGRPPRLPRPRPRPHNRPRP is lower in “shrunken log2 fold change” value: 0.295 for the first, 0.0391 for the second.

First: RRIRVRPPRLPRPRPRPMRQPRP
Second: RRIRYRPPRLPRPRPRPTIMPRP
The “shrunken log2 fold change” value of the first is higher: 0.0326 for the first, -1.29 for the second.

RRIRDRPPRLPRPRPRPDINPRP and RRIRNRPPRLPRPRPRPPTAPRP are within 0.2 log units of each other in “shrunken log2 fold change” value: 0.47 for the first, 0.295 for the second.

First: RRIRARPPRLPRPRPRPGFHPRP
Second: RRIRFRPPRLPRPRPRPFEIPRP
The “shrunken log2 fold change” value of the first is higher: 0.245 for the first, -0.0265 for the second.

Compared with RRIRFRPPRLPRPRPRPKGHPRP, RRIRWRPPRLPRPRPRPTLSPRP is higher in “shrunken log2 fold change” value: 0.0587 for the first, 0.3 for the second.

RRIRQRPPRLPRPRPRPVLMPRP and RRIRERPPRLPRPRPRPMKEPRP are within 0.2 log units of each other in “shrunken log2 fold change” value: 0.111 for the first, -0.0276 for the second.

Going from RRIRCRPPRLPRPRPRPTTTPRP to RRIRARPPRLPRPRPRPSADPRP, the “shrunken log2 fold change” value rises from -0.0127 to 0.804.

First: RRIRCRPPRLPRPRPRPTYPPRP
Second: RRIRGRPPRLPRPRPRPRRVPRP
The “shrunken log2 fold change” value of the first is lower: -0.274 for the first, 0.485 for the second.

For RRIRHRPPRLPRPRPRPVDIPRP, the “shrunken log2 fold change” value was -0.167.
